From article PMC6738654, “BZU2/ZmMUTE controls symmetrical division of guard mother cell and specifies neighbor cell fate in maize”

B1: P2 (PAN2 promoter E-boxes -187, -200) (dsDNA)
DNA 1: CAGCCACAACAGGTGTCCCTTTCAAGTGATCTCTGCA
DNA 2: TGCAGAGATCACTTGAAAGGGACACCTGTTGTGGCTG
B2: P1 (PAN1 promoter E-box -27) (dsDNA)
DNA 1: GAATGAGGGGCACCTGGAGAGCACAT
DNA 2: ATGTGCTCTCCAGGTGCCCCTCATTC

Biological target: T1, BZU2/ZmMUTE-ΔC (Zea mays, UniProt K7V1X7 1-189)
T1 sequence: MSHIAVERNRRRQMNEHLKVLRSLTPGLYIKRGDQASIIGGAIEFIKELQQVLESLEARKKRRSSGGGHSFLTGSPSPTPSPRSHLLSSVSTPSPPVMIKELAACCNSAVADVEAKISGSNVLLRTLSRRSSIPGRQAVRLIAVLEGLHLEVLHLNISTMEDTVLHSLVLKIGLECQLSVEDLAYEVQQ
Experiment: EMSA; cold probe competitor 2-, 5-, 10-fold; LightShift Chemiluminescent EMSA Kit (Thermo) per manufacturer; buffer, salt, pH and temperature not stated
Conditions: protein: recombinant; chain copies: 2; label: 5' biotin (cold probe unlabeled); blunt

Row | Binder | binding result
1 | B1 | binds
2 | B2 | binds
